Values quoted from earlier work, collected in PMC3433420.
Where two headings read alike, the source gives them in different places.

Key:
Conditions in all cases: cited from earlier work
[1] = target: ABL2 (Homo sapiens) (UniProt P42684)
[2] = target: SYK-NC (Homo sapiens) (UniProt P43405)
[3] = target: MATK (Homo sapiens) (UniProt P42679)
[4] = target: TNS4 (Homo sapiens) (UniProt Q8IZW8)
[5] = target: RASA1-NC (Homo sapiens) (UniProt P20936)
[6] = target: HSH2D (Homo sapiens) (UniProt Q96JZ2)
[7] = target: GRB7 (Homo sapiens) (UniProt Q14451)
[8] = target: TENC1 (Homo sapiens) (UniProt Q63HR2)
[9] = target: NCK2 (Homo sapiens) (UniProt O43639)
[10] = target: SHC1-PTB (Homo sapiens) (UniProt P29353)
[11] = target: VAV3 (Homo sapiens) (UniProt Q9UKW4)
[12] = target: LYN (Homo sapiens) (UniProt P07948)
[13] = target: SUPT6H (Homo sapiens) (UniProt Q7KZ85)
[14] = target: ITK (Homo sapiens) (UniProt Q08881)
[15] = target: SRC (Homo sapiens) (UniProt P12931)
[16] = target: NCK2 (Homo sapiens) (UniProt O43639); remark: listed apart in the source
[17] = target: PIK3R1-NC (Homo sapiens) (UniProt P27986)
[18] = target: ABL2 (Homo sapiens) (UniProt P42684); remark: listed apart in the source
[19] = target: PIK3R1-N (Homo sapiens) (UniProt P27986)
[20] = target: SHC1-PTB (Homo sapiens) (UniProt P29353); remark: listed apart in the source
[21] = target: SHB (Homo sapiens) (UniProt Q15464)
[22] = target: CRK (Homo sapiens) (UniProt P46108)
[23] = target: BLK (Homo sapiens) (UniProt P51451)
[24] = target: YES1 (Homo sapiens) (UniProt P07947)
[25] = target: SH2D3C (Homo sapiens) (UniProt Q8N5H7)
[26] = target: GRB7 (Homo sapiens) (UniProt Q14451); remark: listed apart in the source
[27] = target: VAV2 (Homo sapiens) (UniProt P52735)
[28] = target: RASA1-NC (Homo sapiens) (UniProt P20936); remark: listed apart in the source
[29] = target: SHC2-PTB (Homo sapiens) (UniProt P98077)
[30] = target: SYK-C (Homo sapiens) (UniProt P43405)
[31] = target: TNS3 (Homo sapiens) (UniProt Q68CZ2)
[32] = target: TNS4 (Homo sapiens) (UniProt Q8IZW8); remark: listed apart in the source
[33] = target: PIK3R3-NC (Homo sapiens) (UniProt Q92569)
[34] = target: PLCG2-NC (Homo sapiens) (UniProt P16885)
[35] = target: SH2B3 (Homo sapiens) (UniProt Q9UQQ2)
[36] = target: PIK3R2-N (Homo sapiens) (UniProt O00459)
[37] = target: SH2B (Homo sapiens) (UniProt Q9NRF2)
[38] = target: FGR (Homo sapiens) (UniProt P09769)
[39] = target: PLCG2-N (Homo sapiens) (UniProt P16885)
[40] = target: PIK3R2-NC (Homo sapiens) (UniProt O00459)
[41] = target: BCAR3 (Homo sapiens) (UniProt O75815)
[42] = target: GRB10 (Homo sapiens) (UniProt Q13322)
[43] = target: GRB14 (Homo sapiens) (UniProt Q14449)
[44] = target: RASA1-N (Homo sapiens) (UniProt P20936)
[45] = target: SYK-NC (Homo sapiens) (UniProt P43405); remark: listed apart in the source
[46] = target: SLA (Homo sapiens) (UniProt Q13239)
[47] = target: SHC1-PTB (Homo sapiens) (UniProt P29353); remark: listed apart in the source
[48] = target: VAV2 (Homo sapiens) (UniProt P52735); remark: listed apart in the source
[49] = target: ABL2 (Homo sapiens) (UniProt P42684); remark: listed apart in the source
[50] = target: SYK-NC (Homo sapiens) (UniProt P43405); remark: listed apart in the source
[51] = target: VAV2 (Homo sapiens) (UniProt P52735); remark: listed apart in the source
[52] = target: RASA1-N (Homo sapiens) (UniProt P20936); remark: listed apart in the source
[53] = target: SLA (Homo sapiens) (UniProt Q13239); remark: listed apart in the source
[54] = target: PLCG1-C (Homo sapiens) (UniProt P19174)
[55] = target: PIK3R3-NC (Homo sapiens) (UniProt Q92569); remark: listed apart in the source
[56] = target: PLCG1-NC (Homo sapiens) (UniProt P19174)
[57] = target: GRB7 (Homo sapiens) (UniProt Q14451); remark: listed apart in the source

Sequence of VAV2 (Homo sapiens) (P52735 668-772): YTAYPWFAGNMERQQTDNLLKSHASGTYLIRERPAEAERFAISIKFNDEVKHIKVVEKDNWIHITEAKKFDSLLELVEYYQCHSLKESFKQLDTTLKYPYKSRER
Sequence of SHC1-PTB (Homo sapiens) (P29353 483-583): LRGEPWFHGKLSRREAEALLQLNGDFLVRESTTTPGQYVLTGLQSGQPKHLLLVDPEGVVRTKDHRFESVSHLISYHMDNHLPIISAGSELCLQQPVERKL
Sequence of GRB7 (Homo sapiens) (Q14451 426-532): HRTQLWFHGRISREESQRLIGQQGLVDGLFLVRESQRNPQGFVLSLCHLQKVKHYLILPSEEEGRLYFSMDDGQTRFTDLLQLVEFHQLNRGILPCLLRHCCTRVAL
Sequence of ABL2 (Homo sapiens) (P42684 168-268): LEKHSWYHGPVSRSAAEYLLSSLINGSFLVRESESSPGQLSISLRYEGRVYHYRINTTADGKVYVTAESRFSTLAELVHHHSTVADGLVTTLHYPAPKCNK
Sequence of TNS4 (Homo sapiens) (Q8IZW8 444-561): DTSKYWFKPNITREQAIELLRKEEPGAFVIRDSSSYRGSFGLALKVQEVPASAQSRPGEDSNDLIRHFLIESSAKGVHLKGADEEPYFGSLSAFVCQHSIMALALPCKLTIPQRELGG
Sequence of SLA (Homo sapiens) (Q13239 79-180): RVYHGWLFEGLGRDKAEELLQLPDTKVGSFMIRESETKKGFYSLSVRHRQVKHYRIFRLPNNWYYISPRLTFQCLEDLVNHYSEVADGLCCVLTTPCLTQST
Sequence of RASA1-NC (Homo sapiens) (P20936 176-446): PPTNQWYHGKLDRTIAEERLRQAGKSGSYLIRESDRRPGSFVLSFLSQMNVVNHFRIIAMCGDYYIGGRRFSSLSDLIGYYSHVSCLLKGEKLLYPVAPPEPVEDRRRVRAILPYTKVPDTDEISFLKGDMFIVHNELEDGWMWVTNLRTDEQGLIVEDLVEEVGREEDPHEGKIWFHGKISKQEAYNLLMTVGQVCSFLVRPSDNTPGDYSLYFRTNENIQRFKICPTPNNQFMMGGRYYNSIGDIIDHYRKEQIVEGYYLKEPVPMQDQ
Sequence of RASA1-N (Homo sapiens) (P20936 176-446): as above
Sequence of NCK2 (Homo sapiens) (O43639 280-380): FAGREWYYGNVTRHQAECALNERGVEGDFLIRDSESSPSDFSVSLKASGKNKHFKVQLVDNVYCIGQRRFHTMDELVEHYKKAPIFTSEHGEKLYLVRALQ
Sequence of SH2D3C (Homo sapiens) (Q8N5H7 215-324): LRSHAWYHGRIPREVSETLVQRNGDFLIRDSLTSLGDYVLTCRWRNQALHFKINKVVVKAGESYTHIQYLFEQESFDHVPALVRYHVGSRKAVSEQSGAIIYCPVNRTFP
Sequence of TNS3 (Homo sapiens) (Q68CZ2 1167-1287): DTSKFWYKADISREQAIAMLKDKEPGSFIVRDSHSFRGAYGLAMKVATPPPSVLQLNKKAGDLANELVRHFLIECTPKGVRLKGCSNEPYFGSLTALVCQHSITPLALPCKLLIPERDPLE
Sequence of GRB10 (Homo sapiens) (Q13322 488-579): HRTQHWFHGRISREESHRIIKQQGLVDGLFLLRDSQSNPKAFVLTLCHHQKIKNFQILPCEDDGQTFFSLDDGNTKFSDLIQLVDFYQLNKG
Sequence of SHB (Homo sapiens) (Q15464 405-509): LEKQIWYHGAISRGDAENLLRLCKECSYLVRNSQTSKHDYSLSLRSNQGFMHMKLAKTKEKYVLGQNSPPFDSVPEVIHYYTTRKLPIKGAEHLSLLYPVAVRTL
Sequence of MATK (Homo sapiens) (P42679 117-216): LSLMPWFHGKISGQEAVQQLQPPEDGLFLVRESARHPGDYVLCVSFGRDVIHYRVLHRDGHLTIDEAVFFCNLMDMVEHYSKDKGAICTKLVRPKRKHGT
Sequence of PIK3R1-NC (Homo sapiens) (P27986 328-723): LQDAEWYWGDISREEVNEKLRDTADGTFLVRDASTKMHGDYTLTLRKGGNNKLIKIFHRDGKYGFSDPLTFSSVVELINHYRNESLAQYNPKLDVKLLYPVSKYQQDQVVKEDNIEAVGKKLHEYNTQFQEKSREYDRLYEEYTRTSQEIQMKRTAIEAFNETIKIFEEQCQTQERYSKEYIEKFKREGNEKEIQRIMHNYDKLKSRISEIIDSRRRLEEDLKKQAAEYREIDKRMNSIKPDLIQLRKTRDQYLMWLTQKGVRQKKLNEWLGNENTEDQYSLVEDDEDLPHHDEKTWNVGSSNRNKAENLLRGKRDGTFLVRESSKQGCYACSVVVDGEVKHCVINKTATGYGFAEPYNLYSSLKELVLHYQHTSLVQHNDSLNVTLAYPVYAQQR
Sequence of PIK3R1-N (Homo sapiens) (P27986 328-723): as above
Sequence of HSH2D (Homo sapiens) (Q96JZ2 29-130): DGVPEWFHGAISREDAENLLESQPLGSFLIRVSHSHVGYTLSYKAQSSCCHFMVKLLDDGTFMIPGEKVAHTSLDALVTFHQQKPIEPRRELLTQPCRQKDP
Sequence of SH2B3 (Homo sapiens) (Q9UQQ2 359-467): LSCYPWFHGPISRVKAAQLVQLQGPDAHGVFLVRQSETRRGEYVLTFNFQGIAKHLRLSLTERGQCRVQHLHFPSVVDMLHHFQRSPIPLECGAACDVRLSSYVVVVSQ
Sequence of VAV3 (Homo sapiens) (Q9UKW4 667-771): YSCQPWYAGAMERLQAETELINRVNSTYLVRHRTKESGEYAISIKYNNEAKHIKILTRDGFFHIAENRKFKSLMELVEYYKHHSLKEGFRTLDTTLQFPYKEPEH
Sequence of PLCG1-C (Homo sapiens) (P19174 545-761): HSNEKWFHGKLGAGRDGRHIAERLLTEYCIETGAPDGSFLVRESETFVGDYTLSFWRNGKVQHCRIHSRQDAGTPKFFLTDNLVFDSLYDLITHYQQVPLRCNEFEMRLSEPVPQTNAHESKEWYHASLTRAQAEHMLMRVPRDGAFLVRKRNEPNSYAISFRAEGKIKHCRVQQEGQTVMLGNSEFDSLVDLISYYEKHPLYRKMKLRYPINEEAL
Sequence of PLCG1-NC (Homo sapiens) (P19174 545-761): as above
Sequence of LYN (Homo sapiens) (P07948 124-231): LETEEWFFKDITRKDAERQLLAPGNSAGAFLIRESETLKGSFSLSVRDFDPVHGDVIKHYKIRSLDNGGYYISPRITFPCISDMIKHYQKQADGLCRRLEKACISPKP
Sequence of YES1 (Homo sapiens) (P07947 153-260): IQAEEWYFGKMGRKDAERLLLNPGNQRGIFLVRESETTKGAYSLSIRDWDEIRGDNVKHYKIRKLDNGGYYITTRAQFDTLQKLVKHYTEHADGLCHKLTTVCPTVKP
Sequence of SHC2-PTB (Homo sapiens) (P98077 482-582): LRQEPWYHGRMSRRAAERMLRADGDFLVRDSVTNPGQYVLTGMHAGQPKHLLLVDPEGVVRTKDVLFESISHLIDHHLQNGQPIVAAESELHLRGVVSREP
Sequence of PLCG2-N (Homo sapiens) (P16885 527-740): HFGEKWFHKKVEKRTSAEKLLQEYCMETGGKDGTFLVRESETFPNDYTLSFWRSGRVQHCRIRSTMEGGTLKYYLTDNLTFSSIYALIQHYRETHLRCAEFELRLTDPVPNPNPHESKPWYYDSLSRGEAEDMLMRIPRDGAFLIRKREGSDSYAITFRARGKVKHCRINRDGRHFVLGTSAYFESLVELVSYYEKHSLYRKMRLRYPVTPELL
Sequence of ITK (Homo sapiens) (Q08881 234-343): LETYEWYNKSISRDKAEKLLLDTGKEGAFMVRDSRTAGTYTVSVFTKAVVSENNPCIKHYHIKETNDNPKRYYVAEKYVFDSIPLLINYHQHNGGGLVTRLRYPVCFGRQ

Substance: …pYWHSRLFP
- apparent Kd (screen) [1]: 0.604 µM
- apparent Kd (screen) [2]: 1.98 µM
- apparent Kd (screen) [3]: 1.87 µM
- apparent Kd (screen) [4]: 0.85 µM
- apparent Kd (screen) [5]: 1.92 µM
- apparent Kd (screen) [6]: 1.7 µM
- apparent Kd (screen) [7]: 1.69 µM
- apparent Kd (screen) [8]: 1.25 µM
- apparent Kd (screen) [9]: 1.9 µM
- apparent Kd (screen) [10]: 0.217 µM

Substance: …pYQQDFFPKd
- apparent Kd (screen) [11]: 2 µM
- apparent Kd (screen) [12]: 1.59 µM
- apparent Kd (screen) [13]: 1.03 µM
- apparent Kd (screen) [14]: 1.41 µM
- apparent Kd (screen) [15]: 0.466 µM
- apparent Kd (screen) [16]: 0.38 µM
- apparent Kd (screen) [17]: 0.547 µM
- apparent Kd (screen) [18]: 0.49 µM
- apparent Kd (screen) [19]: 0.404 µM
- apparent Kd (screen) [20]: 0.04 µM
- apparent Kd (screen) [21]: 1.79 µM
- apparent Kd (screen) [22]: 0.408 µM
- apparent Kd (screen) [23]: 0.751 µM
- apparent Kd (screen) [24]: 0.098 µM
- apparent Kd (screen) [25]: 1.91 µM
- apparent Kd (screen) [26]: 2 µM
- apparent Kd (screen) [27]: 0.216 µM
- apparent Kd (screen) [28]: 1.17 µM
- apparent Kd (screen) [29]: 1.31 µM
- apparent Kd (screen) [30]: 0.869 µM
- apparent Kd (screen) [31]: 0.736 µM
- apparent Kd (screen) [32]: 0.334 µM
- apparent Kd (screen) [33]: 0.85 µM
- apparent Kd (screen) [34]: 0.674 µM
- apparent Kd (screen) [35]: 1.6 µM
- apparent Kd (screen) [36]: 0.39 µM
- apparent Kd (screen) [37]: 1.82 µM
- apparent Kd (screen) [38]: 0.546 µM
- apparent Kd (screen) [39]: 0.841 µM
- apparent Kd (screen) [40]: 0.322 µM
- apparent Kd (screen) [41]: 0.3 µM
- apparent Kd (screen) [42]: 1.29 µM
- apparent Kd (screen) [43]: 1.25 µM
- apparent Kd (screen) [44]: 1.14 µM
- apparent Kd (screen) [45]: 1.28 µM
- apparent Kd (screen) [46]: 2 µM

Substance: …pYLQEYSTKd
- apparent Kd (screen) [47]: 2 µM
- apparent Kd (screen) [48]: 2 µM
- apparent Kd (screen) [49]: 0.883 µM
- apparent Kd (screen) [50]: 2 µM
- apparent Kd (screen) [51]: 0.769 µM
- apparent Kd (screen) [52]: 2 µM
- apparent Kd (screen) [53]: 2 µM
- apparent Kd (screen) [54]: 2 µM
- apparent Kd (screen) [55]: 2 µM
- apparent Kd (screen) [56]: 2 µM
- apparent Kd (screen) [57]: 2 µM
